For test [1], the target named is T1, HU-RAGE-SA (human, UniProt Q15109 23-342).
T1 construct: extracellular domain; Directly immobilized on a CM5 chip (~100 RU); also called hRAGE-SA; soluble human streptavidin-tagged RAGE; not shown: streptavidin tag (SA)
Put plainly: BIAcore kd against parental M4 scFv-Fc.

Test [2] addresses T2, hRAGE-Fc (human, UniProt Q15109 23-342, biotin label in the selections and HTRF assays).
T2 construct: extracellular domain; also called biotin labeled hRAGE-Fc; Biotin-labeled RAGE-Fc; not shown: Fc part
In words: IC50 of parental M4 scFv-Fc over IC50 of clone, HTRF competition.

Test [3] concerns the target T1, HU-RAGE-SA. Put plainly: BIAcore, 10 nM scFv-Fc over directly immobilized HU-RAGE-SA, 1:1 fit.
For test [4], the target named is T3, human RAGE expressed on CHO cells (human, UniProt Q15109 23-404).
T3 construct: whole, on cells; also called CHO-RAGE cells; cell surface expressed human RAGE
T3 sequence (Q15109 23-404): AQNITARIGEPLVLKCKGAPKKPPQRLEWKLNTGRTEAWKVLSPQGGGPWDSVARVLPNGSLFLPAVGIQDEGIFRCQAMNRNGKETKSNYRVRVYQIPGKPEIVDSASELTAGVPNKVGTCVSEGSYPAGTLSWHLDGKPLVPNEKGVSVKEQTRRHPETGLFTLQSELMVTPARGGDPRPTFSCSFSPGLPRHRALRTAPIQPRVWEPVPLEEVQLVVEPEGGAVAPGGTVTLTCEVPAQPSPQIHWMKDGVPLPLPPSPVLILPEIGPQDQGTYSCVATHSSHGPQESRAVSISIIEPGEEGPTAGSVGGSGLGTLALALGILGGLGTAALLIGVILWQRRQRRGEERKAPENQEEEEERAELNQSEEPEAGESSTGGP
Put plainly: cell ELISA on CHO-RAGE cells, A450 corrected for control CHO cells. Here is the method:
Stably transfected Chinese Hamster Ovary (CHO) cells were engineered to express murine and human RAGE full length proteins. The murine and human RAGE cDNAs were cloned into the mammalian expression vector pSMED, linearized and transfected into CHO cells using lipofectin methods (Kaufman, R. J., 1990, Methods in Enzymology 185:537-66; Kaufman, R. J., 1990, Methods in Enzymology 185:487-511; Pittman, D. D. et al., 1993, Methods in Enzymology 222: 236). Cells were further selected in 20 nM methotrexate and cell extracts were harvested from individual clones and analyzed by SDS sodium dodecyl sulfate-polyacrylamide gel electrophoresis (SDS-PAGE) and Western blotting to confirm expression. […] Absorbance 450 nm values were corrected for the same clones binding to control CHO cells not expressing RAGE. EC50 values were calculated after curve fitting using GraphPad prism and are expressed in μg/ml.

Consider 13 molecules from patent US20100143349A1 (Pfizer, published 2010).

T2 sequence (Q15109 23-342): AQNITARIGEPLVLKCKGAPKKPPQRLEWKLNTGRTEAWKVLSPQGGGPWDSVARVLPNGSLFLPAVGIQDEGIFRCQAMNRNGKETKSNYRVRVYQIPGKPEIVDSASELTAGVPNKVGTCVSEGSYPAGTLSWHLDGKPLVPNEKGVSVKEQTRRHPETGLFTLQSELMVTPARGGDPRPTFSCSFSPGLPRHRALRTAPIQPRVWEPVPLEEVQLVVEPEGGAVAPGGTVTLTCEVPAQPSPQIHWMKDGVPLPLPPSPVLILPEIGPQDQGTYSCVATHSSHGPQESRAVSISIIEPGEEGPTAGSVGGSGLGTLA
T1 sequence (Q15109 23-342): as above

B1: 3A6 scFv-Fc fusion (Fc fusion)
chain: DIQMTQSPSSLSASVGDRVTITCRASQDVGIYVNWFQQKPGKAPRRLIYRATNLADGVPSRFSGSRSGTDFTLTISSLQPEDFATYYCLEFDEHPLTFGGGTKVEIKDGGGSGGGGSGGGGSSEVQLVESGGGLVQPGGSLRLSCAASGFTFNNYWMTWVRQAPGKGLEWVASIDNSGDNTYYPDSVKDRFTISRDNAKNSLYLQMNSLRAEDTAVYYCARGGDILVSLDVWGQGTLVTVSS
notes: not shown: wild-type human IgG Fc (hinge and constant domains)
With B1, the “Fold change in kd” value in test [1] stood at 33.8 fold. Besides, the “Fold gain scFv-Fc (hRAGE)” value in test [2] worked out at 9.9 fold. For the same molecule, the koff in test [3] turned out to be 0.000867 s⁻¹. For the same molecule, a half-maximal effect in test [4] (EC50) was put at 0.0673 µg/mL.

B2: 5A3 scFv-Fc fusion (Fc fusion)
chain: DIQMTQSPSSLSASVGDIVTITCRASQDVGIYVNWFQQKPGKAPRRLIYRATNLADGVPSRFSGSRSSTDFTLTISSLQPEDFATYYCLEFDEHPLTFGGGTKVEIKDGGGSGGGGSGGGGSSEVQLVESGGGLVQPGGSLRLSCAASGFTFNNYWMTWVRQAPGKGLEWVASIDNSGDNTYYPDSVKDRFTISRDNAKNSLYLKMNSLRAEDTAVYYCTRGGDITTGLDYWGQGTLVTVSS
notes: as for B1
Turning to B2, in test [1], the “Fold change in kd” value came to 5.9 fold. In addition, the “Fold gain scFv-Fc (hRAGE)” value in test [2] was 12.2 fold. This molecule yielded a koff in test [3] of 0.00494 s⁻¹. In addition, the EC50 in test [4] came out at 0.096 µg/mL.

B3: 6B2 scFv-Fc fusion (Fc fusion)
chain: DIQMTQSPSSLSASVGDRVTITCRASQDVGIYVNWFQQKPGKAPRRLIYRATNLADGVPSRFSGSRSGTDFTLTISSLQPEDFATYYCLEFDEHPLTFGGGTKVEIKDGGGSGGGGSGGGGSSEVQLVESGGGLVQPGGSLRLSCAASGFTFNNYWMTWVRQAPGKGLEWVASIDNSGDNTYYPDSVKDRFTISRDNAKNSLYLQMNSLRAEDTAVYYCARGGDIRVGLDVWGQGTLVTVSS
notes: Substitutions derived from the printed HCDR3; not shown: wild-type human IgG Fc (hinge and constant domains)
As for B3, in test [1], the “Fold change in kd” value worked out at 61 fold. In test [2], the “Fold gain scFv-Fc (hRAGE)” value was 8.2 fold. This molecule showed a koff in test [3] of 0.000484 s⁻¹. This molecule returned an EC50 in test [4] of 0.0816 µg/mL.

B4: 6C2 scFv-Fc fusion (Fc fusion)
chain: DIQMTQSPSSLSASVGDRVTITCRASQDVGIYVNWFQQKPGKAPRRLIYRATNLADGVPSRFSGSRSGTDFTLTISSLQPEDFATYYCLEFDEHPLTFGGGTKVEIKDGGGSGGGGSGGGGSSEVQLVESGGGLVQPGGSLRLSCAASGFTFNNYWMTWVRQAPGKGLEWVASIDNSGDNTYYPDSVKDRFTISRDNAKNSLYLQMNSLRAEDTAVYYCARGGDIKVSLDRWGQGTLVTVSS
notes: as for B1
For the molecule B4, the “Fold change in kd” value in test [1] was 19.2 fold. Also, the “Fold gain scFv-Fc (hRAGE)” value in test [2] amounted to 9.4 fold. This molecule registered a koff in test [3] of 0.00153 s⁻¹. Besides, in test [4], the midpoint of the response, the EC50, lay at 0.0285 µg/mL.

B5: 10G10 scFv-Fc fusion (Fc fusion)
chain: DIQMTQSPSSLSASVGDRVTITCRASQDVGIYVNWFQQKPGKAPRRLIYRATNLADGVPSRFSGSRSGTDFTLTISSLQPEDFATYYCLEFDEHPLTFGGGTRVEIKDGGGSGGGGSGGGGSSEVQLVESGGGLVQPGGSLRLSCAASGFTFNNYWMSWVRQAPGKGLEWVASIDNSGENTYYPDSVKDRFTISRDNAKNSLYLQMNSLRAEDTAVYYCARGGDITTGFDYWGQGTLVTVSS
notes: as for B1
Consider B5, for which the “Fold change in kd” value in test [1] came to 0.28 fold. Besides, the “Fold gain scFv-Fc (hRAGE)” value in test [2] was 5 fold. For the same molecule, the koff in test [3] came to 0.105 s⁻¹. In addition, in test [4], the EC50 is 0.133 µg/mL.

B6: 10D8 scFv-Fc fusion (Fc fusion)
chain: DIQMTQSPSSLSASVGDKVTITCRASQDVGFYVNWFQQKPGKAPRRLIYRATNLADGVPSRFSGSRSGTDFTLTISSLQPEDFATYYCLEFDEHPLTFGGGTKVEIKDGGGSGNGGSGGGGSSEVQLVESGGELVQPGGSLRLSCAASGFTFNNYWMTWVRQAPGKGLEWVASIDNSGDNTYYPDSVKDRFTISRDNAKNSLYLQMNSLRAEDTAVYYCARGGDITTGFDYWGQGTLVTVSS
notes: also called 10D8 (b); not shown: wild-type human IgG Fc (hinge and constant domains)
In the case of B6, the “Fold change in kd” value in test [1] came to 51.8 fold. The “Fold gain scFv-Fc (hRAGE)” value in test [2] is 8.8 fold. The molecule further showed a koff in test [3] of 0.000566 s⁻¹. This molecule also yielded an EC50 in test [4] of 0.092 µg/mL.

B7: 8G9 scFv-Fc fusion (Fc fusion)
chain: DIQMTQSPSSLSASVGDRVTITCRASQDVGIYVNWFQQKPGKAPRRLIYRATNLADGVPSRFSGSRSGTDFTLTISSLQPEDFATYYCLEFDEHPLTFGGGTKVEIKDGGGSGGGGSGGGGSSEVQLVESGGGLVQPGSSLRLSCAASGFTFNNYWMTWVRQAPGKGLEWVASIDNSGDNTYYPDSVKDRFTISRDNAKNSLYLQMNSLRAEDTAVYYCARGGDITTGLDYWGQGTLVTVSS
notes: as for B1
For B7, the “Fold change in kd” value in test [1] was determined as 3.9 fold. Also, in test [2], the “Fold gain scFv-Fc (hRAGE)” value worked out at 5.1 fold. Moreover, the koff in test [3] was determined as 0.00344 s⁻¹. The molecule further showed an EC50 in test [4] of 0.077 µg/mL.

B8: 3B2 scFv-Fc fusion (Fc fusion)
chain: DIQMTQSPSSLSASVGDRVTITCRASQDVGIYVNWFQQKPGKAPRRLIYRATNLADGVPSRFSGSRSGTDFTLTISSLQPEDFATYYCLEFDEHPLTFGGGTKVEIKDGGGSGGGGSGGGGSSEVQLVESGGGLVQPGGSLRLSCAASGFTFNNYWMTWVRQAPGKGLEWVASIDNSGDNTYYPDSVKDRFTISRDNAKNSLYLQMNSLRAEDTAVYYCARGGDILVGLDYWGQGTLVTVSS
notes: as for B1
As for B8, in test [1], the “Fold change in kd” value is 42.8 fold. Further, in test [2], the “Fold gain scFv-Fc (hRAGE)” value came out at 34.2 fold. The molecule further came in with a koff in test [3] of 0.000684 s⁻¹. Also, the EC50 in test [4] was found to be 0.0335 µg/mL.

B9: 6C3 scFv-Fc fusion (Fc fusion)
chain: DIQMTQSPSSLSASVGDRVTITCRASQDVGIYVNWFQQKPGKAPRRLIYRATNLADGVPSRFSGSRSGTDFTLTISSLQPEDFATYYCLEFDEHPLTFGGGTKVEIKDGGGSGGGGSGGGGSSEVQLVESGGGLVQPGGSLRLSCAASGFTFNNYWMTWVRQAPGKGLEWVASIDNSGDNTYYPDSVKDRFTISRDNAKNSLYLQMNSLRAEDTAVYYCARGGDITLGLDVWGQGTLVTVSS
notes: as for B1
With B9, in test [1], the “Fold change in kd” value worked out at 60 fold. In addition, the “Fold gain scFv-Fc (hRAGE)” value in test [2] worked out at 38.6 fold. In addition, the koff in test [3] came out at 0.000488 s⁻¹. In addition, the midpoint of the response in test [4], the EC50, lay at 0.155 µg/mL.

B10: 3D2 scFv-Fc fusion (Fc fusion)
chain: DIQMTQSPSSLSASVGDRVTITCRASQDVGIYVNWFQQKPGKAPRRLIYRATNLADGVPSRFSGSRSGTDFTLTISSLQPEDFATYYCLEFDEHPLTFGGGTKVEIKDGGGSGGGGSGGGGSSEVQLVESGGGLVQPGGSLRLSCAASGFTFNNYWMTWVRQAPGKGLEWVASIDNSGDNTYYPDSVKDRFTISRDNAKNSLYLQMNSLRAEDTAVYYCARGGDIRVSLDHWGQGTLVTVSS
notes: as for B1
With B10, the “Fold change in kd” value in test [1] was 7.4 fold. Besides, the “Fold gain scFv-Fc (hRAGE)” value in test [2] is 31.3 fold. This molecule yielded a koff in test [3] of 0.00391 s⁻¹. The EC50 in test [4] came to 0.136 µg/mL.

B11: 6B6 scFv-Fc fusion (Fc fusion)
chain: DIQMTQSPSSLSASVGDRVTITCRASQDVGIYVNWFQQKPGKAPRRLIYRATNLADGVPSRFSGSRSGTDFTLTISSLQPEDFATYYCLEFDEHPLTFGGGTKVEIKDGGGSGGGGSGGGGSSEVQLVESGGGLVQPGGSLRLSCAASGFTFNNYWMTWVRQAPGKGLEWVASIDNSGDNTYYPDSVKDRFTISRDNAKNSLYLQMNSLRAEDTAVYYCARGGDIIISLDWWGQGTLVTVSS
notes: as for B3
Consider B11, for which, in test [1], the “Fold change in kd” value turned out to be 20.8 fold. In addition, the “Fold gain scFv-Fc (hRAGE)” value in test [2] worked out at 7.6 fold. The same molecule registered a koff in test [3] of 0.00141 s⁻¹. Also, a half-maximal effect in test [4] (EC50) was put at 0.0285 µg/mL.

B12: 3B3 scFv-Fc fusion (Fc fusion)
chain: DIQMTQSPSSLSASVGDRVTITCRASQDVGFYVNWFQQKPGKAPRRLIYRATNLADGVPSRFSGSRSGTDFTLTISSLQPEDFATYYCLEFDEHPLTFGGGTKVEIKDGGGSGGGGSGGGGSSEVQLVESGGGLVQPGGSLRLSCAASGFTFNNYWMTWVRQAPGKGLEWVASIDNSGDNTYYPDSVKDRFTISRDNAKNSLYLQMNSLRAEDTAVYYCARGGDITTGLDYWGQGTLVTVSS
notes: as for B1
B12: in test [1], the “Fold change in kd” value worked out at 4.5 fold. For the same molecule, the “Fold gain scFv-Fc (hRAGE)” value in test [2] is 8.8 fold. Further, in test [3], the koff amounted to 0.00649 s⁻¹. Besides, the EC50 in test [4] was 0.541 µg/mL.

B13: 3G5 scFv-Fc fusion (Fc fusion)
chain: DIQMTQSPSSLSASVGDRVTITCRASQDVGIYVNWFQQKPGKAPRRLIYRATNLADGVPSRFSGSRSGTDFTLTISSLQPEDFATYYCLEFDEHPLTFGGGTKVEIKDGGGSGGGGSGGGGSSEVQLVESGGGLVQPGGSLRLSCAASGFTFNNYWMTWVRQAPGKGLEWVASIDNSGDNTYYPDSVKDRFTISRDNAKNSLYLQMNSLRAEDTAVYYCARGGDILDSLPYWGQGTLVTVSS
notes: as for B3
With B13, in test [1], the “Fold change in kd” value came to 65.1 fold. The “Fold gain scFv-Fc (hRAGE)” value in test [2] is 62.7 fold. In test [3], this molecule gave a koff of 0.00045 s⁻¹. In test [4], a half-maximal response (EC50) required 0.0565 µg/mL.
